Literature values in publication PMC10330121.

Tests used:
[1] = molecular target: VRK1-K4me3 (Homo sapiens) (UniProt Q99986)
PAF15 (Homo sapiens) = PAF15 (Homo sapiens) (UniProt Q15004)
[2] = molecular target: histone H3 N-terminal tail (Homo sapiens) (UniProt P68431)

Chain of UHRF1 PHD (Q96T88 307-369): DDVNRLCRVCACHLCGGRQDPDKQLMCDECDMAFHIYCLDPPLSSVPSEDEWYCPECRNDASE
Chain of VRK1-K4me3 (Homo sapiens) (Q99986 whole entry): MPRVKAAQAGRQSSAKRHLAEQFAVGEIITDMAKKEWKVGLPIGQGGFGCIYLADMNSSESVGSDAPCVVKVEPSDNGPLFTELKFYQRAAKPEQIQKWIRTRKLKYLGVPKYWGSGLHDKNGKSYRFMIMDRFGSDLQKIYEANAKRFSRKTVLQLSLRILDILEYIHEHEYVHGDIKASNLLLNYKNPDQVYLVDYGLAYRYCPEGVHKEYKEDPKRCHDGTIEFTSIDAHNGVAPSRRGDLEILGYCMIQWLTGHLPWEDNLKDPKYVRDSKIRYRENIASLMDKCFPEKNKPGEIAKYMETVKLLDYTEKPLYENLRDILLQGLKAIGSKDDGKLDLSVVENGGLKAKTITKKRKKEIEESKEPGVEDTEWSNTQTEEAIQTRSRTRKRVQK
Chain of PHF8 PHD-Jumonji (Q9UPP1 37-483): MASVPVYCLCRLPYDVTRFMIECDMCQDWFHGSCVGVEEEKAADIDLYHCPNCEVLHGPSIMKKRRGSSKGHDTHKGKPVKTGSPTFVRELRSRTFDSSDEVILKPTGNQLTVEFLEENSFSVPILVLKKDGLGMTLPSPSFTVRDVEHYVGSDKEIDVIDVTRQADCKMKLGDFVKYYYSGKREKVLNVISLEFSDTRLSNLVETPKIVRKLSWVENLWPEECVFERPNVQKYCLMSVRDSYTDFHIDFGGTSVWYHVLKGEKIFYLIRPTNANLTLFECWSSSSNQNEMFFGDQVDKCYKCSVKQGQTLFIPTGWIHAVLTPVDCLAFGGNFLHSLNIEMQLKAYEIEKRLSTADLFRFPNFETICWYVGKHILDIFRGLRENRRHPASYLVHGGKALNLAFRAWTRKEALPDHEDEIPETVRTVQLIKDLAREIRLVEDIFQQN
Chain of PAF15 (Homo sapiens) (Q15004 whole entry): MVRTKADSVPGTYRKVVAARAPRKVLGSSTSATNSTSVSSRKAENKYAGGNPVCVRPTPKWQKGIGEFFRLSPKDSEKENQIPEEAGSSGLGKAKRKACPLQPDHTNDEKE

Kd [1] [nM]	Kd (PAF15 (Homo sapiens)) [nM]	Kd [2] [nM]	Substance
42	–	–	PHF8 PHD-Jumonji (from UniProt Q9UPP1)
–	2000	2000	UHRF1 PHD (from UniProt Q96T88)
